This is an account of results in patent US20250376517A1 (AKESO BIOPHARMA, published 2025).

Assay [1] concerns the target T1, human Claudin18.2 (CLDN18.2) on the surface of CHO-K1-CLDN18.2 cells (human, UniProt P56856-2 1-261).
T1 construct: whole, on cells; Membrane protein overexpressed on CHO-K1 cells; also called hCLDN18.2; antigen on the surface of CHO-K1-CLDN18.2 cell
The assay is described as follows: flow cytometry (FACS) on CHO-K1-CLDN18.2 cells. (Flow cytometry measures light scatter and fluorescence of single cells or particles in a stream.)

The target in assay [2] is T1, human Claudin18.2 (CLDN18.2) on the …. The assay is described as follows: cell ELISA on CHO-K1-CLDN18.2 cells. On the procedure:
(§1) CHO-K1-CLDN18.2 cells (Chinese hamster ovary cells CHO-K1 overexpressing CLDN18.2, CHO-K1 purchased from Cell Resource Center, Institute of Basic Medical Sciences, Chinese Academy of Medical Sciences, Cat. No.: 3111C0001CCC000004) were plated on a cell plate (Corning, 3599) at 2×10⁴ cells/well and cultured overnight at 5% CO₂ and 37° C., and then the cell plate in which the cells were incubated was washed once with PBST and blocked for 2 h at 37° C. using PBST containing 1% BSA as a blocking solution. After blocking, the plate was washed 3 times with PBST. The ELISA plate containing the test antibodies was incubated at 37° C. for 30 min and then washed 3 times with PBST. […] Then, the plate was incubated at 37° C. for 30 min. After incubation, the plate was washed 4 times with PBST, TMB (Neogen, 308177) was added for color developing in the dark for 5 min, and then a stop solution was added to terminate the chromogenic reaction. The ELISA plate was put into a microplate reader immediately, and the OD value of each well in the ELISA plate was read at 450 nm. The data were analyzed and processed by SoftMax Pro 6.2.1.
For orientation: In an ELISA, binding on a coated surface is turned into a signal by an enzyme label.

For assay [3] the target is unchanged. In words: cell ELISA on CHO-K1-CLDN18.2 cells. On the procedure: as §1
This is another data set of the same source.

Assay [4] shares this target. The assay is described as follows: flow cytometry (FACS) on CHO-K1-CLDN18.2 cells. On the procedure:
CHO-K1-CLDN18.2 cells in logarithmic growth phase were collected and transferred to a 1.5 mL EP tube at 3×10⁵ cells/well, and then 1% PBSA was added. The mixture was centrifuged at 1000× g for 5 min, followed by removal of the supernatant. […] 1000 μL of 1% PBSA was added, and the mixture was centrifuged at 1000×g for 5 min, followed by removal of the supernatant and washing twice with 1% PBSA. […] The mixture was resuspended and well mixed, and incubated on ice for 40 min in the dark. 1000 μL of 1% PBSA was added, and the mixture was centrifuged at 1000×g for 5 min, followed by removal of the supernatant and washing twice with 1% PBSA. 200 μL of 1% PBSA was added to resuspend the cell pellets, and the mixture was transferred to a flow cytometry tube for FACSCalibur assay.
The source holds these as a separate data set.

The target is the same in assay [5]. In words: cell ELISA on CHO-K1-CLDN18.2 cells. On the procedure: as §1
This is another data set of the same source.

For assay [6] the target is unchanged. In words: cell ELISA on CHO-K1-CLDN18.2 cells; antibody 0.111 µg/mL. On the procedure: as §1
Assay [7] has the same target. The assay is described as follows: cell ELISA on CHO-K1-CLDN18.2 cells; antibody 0 µg/mL (background, no antibody). On the procedure: as §1
Assay [8] has the same target. In words: cell ELISA on CHO-K1-CLDN18.2 cells; antibody 0.333 µg/mL. On the procedure:
as §1

Assay [9] has the same target. The assay is described as follows: cell ELISA on CHO-K1-CLDN18.2 cells; antibody 3 µg/mL. On the procedure: as §1
The target is the same in assay [10]. The assay is described as follows: cell ELISA on CHO-K1-CLDN18.2 cells; antibody 0.004 µg/mL. On the procedure: as §1
Assay [11] shares this target. The assay is described as follows: cell ELISA on CHO-K1-CLDN18.2 cells; antibody 0.012 µg/mL. On the procedure: as §1
Assay [12] has the same target. The assay is described as follows: cell ELISA on CHO-K1-CLDN18.2 cells; antibody 1.000 µg/mL. On the procedure:
as §1

Assay [13] shares this target. In words: cell ELISA on CHO-K1-CLDN18.2 cells; antibody 0.037 µg/mL. On the procedure: as §1

B1: humanized anti-human CLDN18.2 antibody 8C5.1H2L2 (antibody, human IgG1, kappa, V domains shown)
VH: EVQLVESGGGLVKPGGSLRLSCAASGFTFSNSAVSWVRQAPGKGLEWVSTITSGVSYTYYADSVKGRFTISRDNAKNSLYLQMNSLRAEDTAVYYCTRQFKGNALDYWGQGTSVTVSS
VL: DIVMTQSPSSLSVSPGERVTISCKSSQSLLNSGNQKNYLTWYQQKPGQPPKLLIYWASTRESGVPDRFSGSGSGTDFTLTISSFQAEDVAVYYCQNDYFYPLTFGAGTKLELKR
As to B1, the results for the EC50 in assay [1] and in [2] were 0.234 µg/mL and 94 pM, respectively.

B2: humanized anti-human CLDN18.2 antibody 8C5.1H3L3 (antibody, human IgG1, kappa, V domains shown)
VH: EVQLVESGGGLVKPGGSLRLSCAASGFTFSNSAVSWVRQAPGKGLEWVSSITSGVSYTYYADSVKGRFTISRDNAKNSLYLQMNSLRAEDTAVYYCTRQFKGNALDYWGQGTSVTVSS
VL: DIVMTQSPSSLSVSPGERVTISCKSSQSLLNSGNQKNYLAWYQQKPGQPPKLLIYWASTRESGVPDRFSGSGSGTDFTLTISSLQAEDVAVYYCQNDYFYPLTFGAGTKLELKR
Turning to B2, the midpoint of the response in assay [1], the EC50, lay at 0.281 µg/mL.

B3: humanized anti-human CLDN18.2 antibody 8C5.1H2L3 (antibody, human IgG1, kappa, V domains shown)
VH: EVQLVESGGGLVKPGGSLRLSCAASGFTFSNSAVSWVRQAPGKGLEWVSTITSGVSYTYYADSVKGRFTISRDNAKNSLYLQMNSLRAEDTAVYYCTRQFKGNALDYWGQGTSVTVSS
VL: DIVMTQSPSSLSVSPGERVTISCKSSQSLLNSGNQKNYLAWYQQKPGQPPKLLIYWASTRESGVPDRFSGSGSGTDFTLTISSLQAEDVAVYYCQNDYFYPLTFGAGTKLELKR
B3: the EC50 (commonly the concentration giving half of the maximal effect) is 0.243 µg/mL in assay [1] and 81 pM in assay [3].

B4: humanized anti-human CLDN18.2 antibody 8C5.1H3L2 (antibody, human IgG1, kappa, V domains shown)
VH: EVQLVESGGGLVKPGGSLRLSCAASGFTFSNSAVSWVRQAPGKGLEWVSSITSGVSYTYYADSVKGRFTISRDNAKNSLYLQMNSLRAEDTAVYYCTRQFKGNALDYWGQGTSVTVSS
VL: DIVMTQSPSSLSVSPGERVTISCKSSQSLLNSGNQKNYLTWYQQKPGQPPKLLIYWASTRESGVPDRFSGSGSGTDFTLTISSFQAEDVAVYYCQNDYFYPLTFGAGTKLELKR
Take B4: the values for the EC50 in [1] and in assay [3] were 0.213 µg/mL and 103 pM, respectively.

B5: humanized anti-human CLDN18.2 antibody 8C5.1H1L1 (antibody, human IgG1, kappa, V domains shown)
VH: EVQLVESGGGLVKPGGSLRLSCAASGFTFSNSAVSWVRQAPGKRLEWVATITSGVSYTYYLDSVRGRFTISRDNAKNSLYLQMNSLRAEDTAVYYCTRQFKGNALDYWGQGTSVTVSS
VL: DIVMTQSPSSLSVSPGERVTMSCKSSQSLLNSGNQKNYLTWYQQKPGQPPKLLIYWASTRESGVPDRFSGSGSGTDFTLTINSFQAEDVAVYYCQNDYFYPLTFGAGTKLELKR
On to B5, for which the EC50 is 0.216 µg/mL in assay [1] and 54 pM in [2].

B6: humanized anti-human CLDN18.2 antibody 8C5.1H1L2 (antibody, human IgG1, kappa, V domains shown)
VH: EVQLVESGGGLVKPGGSLRLSCAASGFTFSNSAVSWVRQAPGKRLEWVATITSGVSYTYYLDSVRGRFTISRDNAKNSLYLQMNSLRAEDTAVYYCTRQFKGNALDYWGQGTSVTVSS
VL: DIVMTQSPSSLSVSPGERVTISCKSSQSLLNSGNQKNYLTWYQQKPGQPPKLLIYWASTRESGVPDRFSGSGSGTDFTLTISSFQAEDVAVYYCQNDYFYPLTFGAGTKLELKR
Turning to B6, the results for the EC50 in assay [1] and in assay [2] were 0.242 µg/mL and 108 pM, respectively.

B7: humanized anti-human CLDN18.2 antibody 8C5.1H2L1 (antibody, human IgG1, kappa, V domains shown)
VH: EVQLVESGGGLVKPGGSLRLSCAASGFTFSNSAVSWVRQAPGKGLEWVSTITSGVSYTYYADSVKGRFTISRDNAKNSLYLQMNSLRAEDTAVYYCTRQFKGNALDYWGQGTSVTVSS
VL: DIVMTQSPSSLSVSPGERVTMSCKSSQSLLNSGNQKNYLTWYQQKPGQPPKLLIYWASTRESGVPDRFSGSGSGTDFTLTINSFQAEDVAVYYCQNDYFYPLTFGAGTKLELKR
Turning to B7, the EC50 in assay [1] came to 0.267 µg/mL; in [2] it was 91 pM.

B8: positive control antibody IMAB362 (antibody, human IgG1, kappa, V domains shown)
VH: QVQLQQPGAELVRPGASVKLSCKASGYTFTSYWINWVKQRPGQGLEWIGNIYPSDSYTNYNQKFKDKATLTVDKSSSTAYMQLSSPTSEDSAVYYCTRSWRGNSFDYWGQGTTLTVSS
VL: DIVMTQSPSSLTVTAGEKVTMSCKSSQSLLNSGNQKNYLTWYQQKPGQPPKLLIYWASTRESGVPDRFTGSGSGTDFTLTISSVQAEDLAVYYCQNDYSYPFTFGSGTKLEIKR
notes: Human-murine chimeric antibody; produced by Akeso Biopharma Inc; also called Claudiximab; zolbetuximab
B8: the EC50 in assay [1] was determined as 0.358 µg/mL; in [4], 0.687 µg/mL; in assay [3] it was 182 pM; in assay [2] it was 153 pM; in assay [5] it was 201 pM.

B9: anti-CLDN18.2 antibody 8C5.1 (antibody, V domains shown)
VH: EVQLVESGGGLVKPGGSLKLSCAASGFTFSNSAVSWVRQTPEKRLEWVATITSGVSYTYYLDSVRGRFTISRDNAKNTLYLQMSSLRSEDTAMYYCTRQFKGNALDYWGQGTSVTVSS
VL: DIVMTQSPSSLTVTAGEKVTMSCKSSQSLLNSGNQKNYLTWYQQKPGQPPKLLIYWASTRESGVPDRFTGSGSGTDFTLTINNFQAEDLAVYYCQNDYFYPLTFGAGTKLELK
notes: Murine monoclonal antibody purified from hybridoma LT020 supernatant on protein A; also called monoclonal antibody secreted by hybridoma cell line LT020
On to B9, for which the “OD (450 nm)” value in [6] stood at 1.42 OD; in assay [7], 0.086 OD; in assay [8], 1.63 OD; in assay [9], 1.61 OD; in assay [10], 0.344 OD; in assay [11], 0.697 OD. The “OD (450 nm)” value in assay [12] was 1.79 OD; in assay [13], 1.07 OD. Besides, the EC50 in assay [4] was determined as 0.214 µg/mL; in assay [5] it was 153 pM.
